Data on one molecule can be found in patent CN114195889A (NANJING FUJIEKANG BIOTECHNOLOGY CO LTD, dated 2022).

The target of the assay is T1, 人源重组SARS-Cov-2-N蛋白 (SARS-CoV-2, UniProt P0DTC9 1-419).
T1 construct: range 1-419; also called SARS-Cov-2-N重组蛋白; 新冠病毒N蛋白
The experiment in a line: ELISA dose-response on coated N protein. Background: An ELISA detects its analyte on a solid surface through an enzyme-linked reagent.

B1: 纳米抗体1B2 (VHH)
VHH: ESGGGSVQAGGSLKLSCVAFGYTYTSGCMGWFRQAPGKGREGVATICNTDGTTAYANSVKGRFTISQDNAKNTVYLQMNSLKAEDSAMYYCAAGRTPYELASGGKNWGQGTQVTVSS
notes: also called VHH4
Consider B1, for which the binding result is listed as “binds”.
